Assay results taken from the supplement of paper PMC5998384.

Assays:
HeLa Kyoto [1] = test: solubility in G1/S (NP-40 vs SDS abundance) (log2 ratio); higher = more soluble; details: cell cycle stage: G1/S
HeLa Kyoto [2] = test: melting temperature (median over replicates), in situ; higher = more thermally stable
HeLa Kyoto [3] = test: solubility change mitosis vs G1/S (difference of NP-40 vs SDS log2 ratios) (log2 ratio difference); higher = more soluble in mitosis
HeLa Kyoto [4] = test: thermal stability score vs G1/S (z-score of summed log2 fold changes over temperatures); higher = more thermally stable than in G1/S
[5] = cell cycle stage: early G1 (4.5 h after nocodazole release)
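For melting temperature (median over replicates), in situ in this document: HeLa Kyoto cells synchronized by double thymidine or nocodazole block, proteins quantified by TMT10plex mass spectrometry, three independent biological replicates.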
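For solubility change mitosis vs G1/S (difference of NP-40 vs SDS log2 ratios) in this document: synchronized HeLa Kyoto cells (double thymidine block for G1/S, nocodazole release for mitosis), protein amounts in NP-40 versus SDS lysates quantified by mass spectrometry, three biological replicates.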
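For solubility in G1/S (NP-40 vs SDS abundance) in this document: HeLa Kyoto cells arrested at G1/S by double thymidine block, proteins quantified by TMT10plex mass spectrometry in mild NP-40 versus SDS extracts, three biological replicates.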
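For thermal stability score vs G1/S (z-score of summed log2 fold changes over temperatures) in this document: synchronized HeLa Kyoto cells, proteins quantified by TMT10plex mass spectrometry, three biological replicates, mitosis taken 0.5 h after nocodazole release, G1/S directly after double thymidine block.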

| Sequence | solubility in G1/S (log2) (HeLa Kyoto [1]) | melting temperature (HeLa Kyoto [2]; cell cycle stage: G1/S) [°C] | melting temperature (HeLa Kyoto [2]; cell cycle stage: mitosis) [°C] | solubility change mitosis (log2) (HeLa Kyoto [3]) | thermal stability score (HeLa Kyoto [4]; [5]) | thermal stability score (HeLa Kyoto [4]; cell cycle stage: mitosis) |
| --- | --- | --- | --- | --- | --- | --- |
| MAAVKEPLEFHAKRPWRPEEAVEDPDEEDEDNTSEAENGFSLEEVLRLGGTKQDYLMLATLDENEEVIDGGKKGAIDDLQQGELEAFIQNLNLAKYTKASLVEEDEPAEKENSSKKEVKIPKINNKNTAESQRTSVNKVKNKNRPEPHSDENGSTTPKVKKDKQNIFEFFERQTLLLRPGGKWYDLEYSNEYSLKPQPQDVVSKYKTLAQKLYQHEINLFKSKTNSQKGASSTWMKAIVSSGTLGDRMAAMILLIQDDAVHTLQFVETLVNLVKKKGSKQQCLMALDTFKELLITDLLPDNRKLRIFSQRPFDKLEQLSSGNKDSRDRRLILWYFEHQLKHLVAEFVQVLETLSHDTLVTTKTRALTVAHELLCNKPEEEKALLVQVVNKLGDPQNRIATKASHLLETLLCKHPNMKGVVSGEVERLLFRSNISSKAQYYAICFLNQMALSHEESELANKLITVYFCFFRTCVKKKDVESKMLSALLTGVNRAYPYSQTGDDKVREQIDTLFKVLHIVNFNTSVQALMLLFQVMNSQQTISDRYYTALYRKMLDPGLMTCSKQAMFLNLVYKSLKADIVLRRVKAFVKRLLQVTCQQMPPFICGALYLVSEILKAKPGLRSQLDDHPESDDEENFIDANDDEDMEKFTDADKETEIVKKLETEETVPETDVETKKPEVASWVHFDNLKGGKQLNKYDPFSRNPLFCGAENTSLWELKKLSVHFHPSVALFAKTILQGNYIQYSGDPLQDFTLMRFLDRFVYRNPKPHKGKENTDSVVMQPKRKHFIKDIRHLPVNSKEFLAKEESQIPVDEVFFHRYYKKVAVKEKQKRDADEESIEDVDDEEFEELIDTFEDDNCFSSGKDDMDFAGNVKKRTKGAKDNTLDEDSEGSDDELGNLDDDEVSLGSMDDEEFAEVDEDGGTFMDVLDDESESVPELEVHSKVSTKKSKRKGTDDFDFAGSFQGPRKKKRNLNDSSLFVSAEEFGHLLDENMGSKFDNIGMNAMANKDNASLKQLRWEAERDDWLHNRDAKSIIKKKKHFKKKRIKTTQKTKKQRK [CEBPZ] | -1.9 | 49.8 | 50.1 | 1.14 | 1.59 | 1.76 |
| MAAVQMDPELAKRLFFEGATVVILNMPKGTEFGIDYNSWEVGPKFRGVKMIPPGIHFLHYSSVDKANPKEVGPRMGFFLSLHQRGLTVLRWSTLREEVDLSPAPESEVEAMRANLQELDQFLGPYPYATLKKWISLTNFISEATVEKLQPENRQICAFSDVLPVLSMKHTKDRVGQNLPRCGIECKSYQEGLARLPEMKPRAGTEIRFSELPTQMFPEGATPAEITKHSMDLSYALETVLNKQFPSSPQDVLGELQFAFVCFLLGNVYEAFEHWKRLLNLLCRSEAAMMKHHTLYINLISILYHQLGEIPADFFVDIVSQDNFLTSTLQVFFSSACSIAVDATLRKKAEKFQAHLTKKFRWDFAAEPEDCAPVVVELPEGIEMG [AAR2] | 0.0362 | 50.2 | 50.4 | -0.266 | 0.316 | 1.07 |
| MAAVSGLVRRPLREVSGLLKRRFHWTAPAALQVTVRDAINQGMDEELERDEKVFLLGEEVAQYDGAYKVSRGLWKKYGDKRIIDTPISEMGFAGIAVGAAMAGLRPICEFMTFNFSMQAIDQVINSAAKTYYMSGGLQPVPIVFRGPNGASAGVAAQHSQCFAAWYGHCPGLKVVSPWNSEDAKGLIKSAIRDNNPVVVLENELMYGVPFEFPPEAQSKDFLIPIGKAKIERQGTHITVVSHSRPVGHCLEAAAVLSKEGVECEVINMRTIRPMDMETIEASVMKTNHLVTVEGGWPQFGVGAEICARIMEGPAFNFLDAPAVRVTGADVPMPYAKILEDNSIPQVKDIIFAIKKTLNI [PDHB] | 0.196 | 51.7 | 51.4 | -0.117 | -1.24 | -2.38 |
| MAAWGCVAALGAARGLCWRAARAAAGLQGRPARRCYAVGPAQSPPTFGFLLDIDGVLVRGHRVIPAALKAFRRLVNSQGQLRVPVVFVTNAGNILQHSKAQELSALLGCEVDADQVILSHSPMKLFSEYHEKRMLVSGQGPVMENAQGLGFRNVVTVDELRMAFPLLDMVDLERRLKTTPLPRNDFPRIEGVLLLGEPVRWETSLQLIMDVLLSNGSPGAGLATPPYPHLPVLASNMDLLWMAEAKMPRFGHGTFLLCLETIYQKVTGKELRYEGLMGKPSILTYQYAEDLIRRQAERRGWAAPIRKLYAVGDNPMSDVYGANLFHQYLQKATHDGAPELGAGGTRQQQPSASQSCISILVCTGVYNPRNPQSTEPVLGGGEPPFHGHRDLCFSPGLMEASHVVNDVNEAVQLVFRKEGWALE [CECR5] | 0.262 | 50.8 | 50.2 | -0.159 | 0.291 | 1.28 |
| MAAYKLVLIRHGESAWNLENRFSGWYDADLSPAGHEEAKRGGQALRDAGYEFDICFTSVQKRAIRTLWTVLDAIDQMWLPVVRTWRLNERHYGGLTGLNKAETAAKHGEAQVKIWRRSYDVPPPPMEPDHPFYSNISKDRRYADLTEDQLPSCESLKDTIARALPFWNEEIVPQIKEGKRVLIAAHGNSLRGIVKHLEGLSEEAIMELNLPTGIPIVYELDKNLKPIKPMQFLGDEETVRKAMEAVAAQGKAKK [PGAM1] | 0.324 | 55.7 | 57.8 | -0.15 | -0.0829 | -2.07 |
| MACAAARSPADQDRFICIYPAYLNNKKTIAEGRRIPISKAVENPTATEIQDVCSAVGLNVFLEKNKMYSREWNRDVQYRGRVRVQLKQEDGSLCLVQFPSRKSVMLYAAEMIPKLKTRTQKTGGADQSLQQGEGSKKGKGKKKK [SRP19] | 0.299 | 50.8 | 50.8 | 0.161 | 0.816 | -0.116 |
| MACAAVMIPGLLRCSVGAIRIEAASLRLTLSTLRHLTLTSIMKSKRKTDHMERTASVLRREIVSAAKVCGAASESPSVKSLRLLVADQDFSFKAGQWVDFFIPGVSVVGGFSICSSPRLLEQERVIELAVKYTNHPPALWVHNTCTLDCEVAVRVGGEFFFDPQPADASRNLVLIAGGVGINPLLSILRHAADLLREQANKRNGYEIGTIKLFYSAKNTSELLFKKNILDLVNEFPEKIACSLHVTKQTTQINAELKPYITEGRITEKEIRDHISKETLFYICGPPPMTDFFSKQLENNHVPKEHICFEKWW [OXNAD1] | -0.0285 | 53.9 | 54.7 | -0.0113 | -0.605 | -0.938 |
| MACRGGAGNGHRASATLSRVSPGSLYTCRTRTHNICMVSDFFYPNMGGVESHIYQLSQCLIERGHKVIIVTHAYGNRKGIRYLTSGLKVYYLPLKVMYNQSTATTLFHSLPLLRYIFVRERVTIIHSHSSFSAMAHDALFHAKTMGLQTVFTDHSLFGFADVSSVLTNKLLTVSLCDTNHIICVSYTSKENTVLRAALNPEIVSVIPNAVDPTDFTPDPFRRHDSITIVVVSRLVYRKGIDLLSGIIPELCQKYPDLNFIIGGEGPKRIILEEVRERYQLHDRVRLLGALEHKDVRNVLVQGHIFLNTSLTEAFCMAIVEAASCGLQVVSTRVGGIPEVLPENLIILCEPSVKSLCEGLEKAIFQLKSGTLPAPENIHNIVKTFYTWRNVAERTEKVYDRVSVEAVLPMDKRLDRLISHCGPVTGYIFALLAVFNFLFLIFLRWMTPDSIIDVAIDATGPRGAWTNNYSHSKRGGENNEISETR [PIGA] | -0.107 | 55 | 53.6 | -0.133 | -0.383 | -0.682 |
| MADAASQVLLGSGLTILSQPLMYVKVLIQVGYEPLPPTIGRNIFGRQVCQLPGLFSYAQHIASIDGRRGLFTGLTPRLCSGVLGTVVHGKVLQHYQESDKGEELGPGNVQKEVSSSFDHVIKETTREMIARSAATLITHPFHVITLRSMVQFIGRESKYCGLCDSIITIYREEGILGFFAGLVPRLLGDILSLWLCNSLAYLVNTYALDSGVSTMNEMKSYSQAVTGFFASMLTYPFVLVSNLMAVNNCGLAGGCPPYSPIYTSWIDCWCMLQKEGNMSRGNSLFFRKVPFGKTYCCDLKMLI [MTCH2] | 0.00924 | 56.6 | 57 | -0.018 | -2.66 | -2.99 |
| MADAEVIILPKKHKKKKERKSLPEEDVAEIQHAEEFLIKPESKVAKLDTSQWPLLLKNFDKLNVRTTHYTPLACGSNPLKREIGDYIRTGFINLDKPSNPSSHEVVAWIRRILRVEKTGHSGTLDPKVTGCLIVCIERATRLVKSQQSAGKEYVGIVRLHNAIEGGTQLSRALETLTGALFQRPPLIAAVKRQLRVRTIYESKMIEYDPERRLGIFWVSCEAGTYIRTLCVHLGLLLGVGGQMQELRRVRSGVMSEKDHMVTMHDVLDAQWLYDNHKDESYLRRVVYPLEKLLTSHKRLVMKDSAVNAICYGAKIMLPGVLRYEDGIEVNQEIVVITTKGEAICMAIALMTTAVISTCDHGIVAKIKRVIMERDTYPRKWGLGPKASQKKLMIKQGLLDKHGKPTDSTPATWKQEYVDYSESAKKEVVAEVVKAPQVVAEAAKTAKRKRESESESDETPPAAPQLIKKEKKKSKKDKKAKAGLESGAEPGDGDSDTTKKKKKKKKAKEVELVSE [DKC1] | -1.41 | 55.6 | 53.2 | 0.816 | -3.35 | -5.27 |
| MADAGIRRVVPSDLYPLVLGFLRDNQLSEVANKFAKATGATQQDANASSLLDIYSFWLKSAKVPERKLQANGPVAKKAKKKASSSDSEDSSEEEEEVQGPPAKKAAVPAKRVGLPPGKAAAKASESSSSEESSDDDDEEDQKKQPVQKGVKPQAKAAKAPPKKAKSSDSDSDSSSEDEPPKNQKPKITPVTVKAQTKAPPKPARAAPKIANGKAASSSSSSSSSSSSDDSEEEKAAATPKKTVPKKQVVAKAPVKAATTPTRKSSSSEDSSSDEEEEQKKPMKNKPGPYSSVPPPSAPPPKKSLGTQPPKKAVEKQQPVESSEDSSDESDSSSEEEKKPPTKAVVSKATTKPPPAKKAAESSSDSSDSDSSEDDEAPSKPAGTTKNSSNKPAVTTKSPAVKPAAAPKQPVGGGQKLLTRKADSSSSEEESSSSEEEKTKKMVATTKPKATAKAALSLPAKQAPQGSRDSSSDSDSSSSEEEEEKTSKSAVKKKPQKVAGGAAPSKPASAKKGKAESSNSSSSDDSSEEEEEKLKGKGSPRPQAPKANGTSALTAQNGKAAKNSEEEEEEKKKAAVVVSKSGSLKKRKQNEAAKEAETPQAKKIKLQTPNTFPKRKKGEKRASSPFRRVREEEIEVDSRVADNSFDAKRGAAGDWGERANQVLKFTKGKSFRHEKTKKKRGSYRGGSISVQVNSIKFDSE [NOLC1] | -0.953 | 59.5 | 57 | 1.11 | -2.83 | -4.21 |
| MADDDVLFEDVYELCEVIGKGPFSVVRRCINRETGQQFAVKIVDVAKFTSSPGLSTEDLKREASICHMLKHPHIVELLETYSSDGMLYMVFEFMDGADLCFEIVKRADAGFVYSEAVASHYMRQILEALRYCHDNNIIHRDVKPHCVLLASKENSAPVKLGGFGVAIQLGESGLVAGGRVGTPHFMAPEVVKREPYGKPVDVWGCGVILFILLSGCLPFYGTKERLFEGIIKGKYKMNPRQWSHISESAKDLVRRMLMLDPAERITVYEALNHPWLKERDRYAYKIHLPETVEQLRKFNARRKLKGAVLAAVSSHKFNSFYGDPPEELPDFSEDPTSSGLLAAERAVSQVLDSLEEIHALTDCSEKDLDFLHSVFQDQHLHTLLDLYDKINTKSSPQIRNPPSDAVQRAKEVLEEISCYPENNDAKELKRILTQPHFMALLQTHDVVAHEVYSDEALRVTPPPTSPYLNGDSPESANGDMDMENVTRVRLVQFQKNTDEPMGITLKMNELNHCIVARIMHGGMIHRQGTLHVGDEIREINGISVANQTVEQLQKMLREMRGSITFKIVPSYRTQSSSCERDSPSTSRQSPANGHSSTNNSVSDLPSTTQPKGRQIYVRAQFEYDPAKDDLIPCKEAGIRFRVGDIIQIISKDDHNWWQGKLENSKNGTAGLIPSPELQEWRVACIAMEKTKQEQQASCTWFGKKKKQYKDKYLAKHNAVFDQLDLVTYEEVVKLPAFKRKTLVLLGAHGVGRRHIKNTLITKHPDRFAYPIPHTTRPPKKDEENGKNYYFVSHDQMMQDISNNEYLEYGSHEDAMYGTKLETIRKIHEQGLIAILDVEPQALKVLRTAEFAPFVVFIAAPTITPGLNEDESLQRLQKESDILQRTYAHYFDLTIINNEIDETIRHLEEAVELVCTAPQWVPVSWVY [CASK] | -0.129 | 52.1 | 51.9 | -0.0742 | -0.366 | -0.0785 |
